Measurements reported in patent US8084418B2.

Target: XptA2wi (Xenorhabdus nematophilus str Xwi)

Substance: XptB1xb + XptC1xb
- dead corn earworm larvae of 8 (pDAB6026 lysate + purified XptA2wi) (dead insects (of 8)): 8
